Test [1] addresses T1, full-length human Tau (flTau) (human, UniProt P10636-8 1-441).
T1 construct: range 1-441; bought (SignalChem); also called human Tau-441
As to the kind of experiment: SPR, hybridoma Ab on anti-IgG chip, flTau analyte. How it is done:
Affinity of non-purified antibodies in serum-free hybridoma supernatants was estimated by surface plasmon resonance using a Biacore T-100 instrument (GE Healthcare, United Kingdom). Antibodies were immobilized onto an anti-IgG biosensor chip, and flTau (SignalChem, Canada) was used as the target analyte. Kinetic analysis was done using a 1:1 Langmuir fit model.
For affinity measurements to flTau, antibodies were measured using SPR on a Biacore instrument, with the KDs determined. Biacore affinity measurements were done by immobilizing antibodies on an anti-IgG chip and using flTau as the target analyte.
On the technique in general: In SPR one partner is held on a chip, and binding of the other changes the refractive index at the surface.

Test [2] has as its target T2, recombinant human Tau monomer, 2N4R isoform (amino acids 2-441) (human, UniProt P10636-8 2-441).
T2 construct: range 2-441; N-terminal His-tag removed with TEV protease; also called monomeric Tau
As to the kind of experiment: SPR screen, hIgG captured, Tau monomer analyte. An excerpt:
Antibody 125B11-H3 was humanized onto VH3 and Vκ1 consensus frameworks. The heavy chain graft included murine residues at position 78 (Kabat numbering system). The Vκ1 graft included murine residues in framework positions 43 and 87. The light chain of 113F5-F7 was also humanized onto the Vκ1 framework, with additional murine residues at framework positions 43 and 87. Humanized variant heavy chains (125B11) and light chains (125B11 and 113F5-F7) were co-transfected in multiple combinations and purified in 96-well format as described above. Humanized variants were then screened for affinity for human Tau monomer using the Biacore human IgG capture kit, a Series S CM5 chip and a Biacore T200 instrument. Antibodies were diluted to 2 μg/ml and captured for 15 seconds at 10 μl/min. Association and dissociation of 0, 100 and 500 nM human Tau monomer in HBSP was monitored for 180s and 300s respectively at a flow rate of 40 μl/min. A 1:1 binding model was applied to the results (Table 9).

For orientation: Kd means the free concentration of one partner at which half of the binding sites on the other are occupied at equilibrium, for simple one-to-one binding.

T2 sequence (P10636 other isoform, or with tags, fused parts or gaps limits assumed): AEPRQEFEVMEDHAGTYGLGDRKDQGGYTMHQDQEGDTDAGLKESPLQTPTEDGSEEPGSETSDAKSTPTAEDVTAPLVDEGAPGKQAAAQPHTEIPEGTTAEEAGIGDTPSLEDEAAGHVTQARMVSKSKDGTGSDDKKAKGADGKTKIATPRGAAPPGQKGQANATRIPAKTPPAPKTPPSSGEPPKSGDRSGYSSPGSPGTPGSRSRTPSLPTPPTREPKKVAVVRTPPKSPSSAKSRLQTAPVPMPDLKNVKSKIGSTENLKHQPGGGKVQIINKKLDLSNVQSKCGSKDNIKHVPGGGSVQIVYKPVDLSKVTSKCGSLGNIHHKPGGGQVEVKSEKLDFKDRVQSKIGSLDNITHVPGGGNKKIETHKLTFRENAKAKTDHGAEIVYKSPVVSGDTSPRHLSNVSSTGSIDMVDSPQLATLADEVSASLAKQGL
T1 sequence (P10636 other isoform, or with tags, fused parts or gaps limits assumed): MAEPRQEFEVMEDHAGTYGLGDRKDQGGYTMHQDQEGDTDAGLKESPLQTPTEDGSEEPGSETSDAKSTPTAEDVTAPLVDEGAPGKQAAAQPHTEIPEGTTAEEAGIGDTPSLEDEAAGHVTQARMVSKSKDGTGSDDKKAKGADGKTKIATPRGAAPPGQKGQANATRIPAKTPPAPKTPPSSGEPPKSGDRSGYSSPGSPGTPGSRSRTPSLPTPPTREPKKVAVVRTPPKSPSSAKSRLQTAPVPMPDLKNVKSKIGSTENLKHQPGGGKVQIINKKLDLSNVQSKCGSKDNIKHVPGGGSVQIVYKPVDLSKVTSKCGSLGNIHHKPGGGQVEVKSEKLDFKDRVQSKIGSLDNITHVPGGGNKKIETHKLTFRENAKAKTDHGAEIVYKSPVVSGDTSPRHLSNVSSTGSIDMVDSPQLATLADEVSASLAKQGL

B1: 61E7-C4 (antibody, V domains shown)
VH: EVQLVESGGDLVKPGGSLKVSCVASGFTFRSYGMSWVRQTPDKRLDWVATISSGGNYTYYPDSVKGRFTISRDNAKNTLYLQMSSLKSEDTAMYYCASSYSGAMDYWGQGTSVTVSS
VL: DTVMTQSPLSLPVSLGDQASISCRSSQSIVHSNGNTYLEWYLQKPGQSPKLLIYTVSNRFSGVPDRFSGSGSGTDFTLKISRVEAEDLGVYYCFQGSHVPWTFGGGTKLEIK
notes: hybridoma supernatant
Regarding B1, the Kd in test [1] was determined as 3.3 nM.

B2: 19F8-B1 (antibody, V domains shown)
VH: EVQLQQSGPELVKPGASVKMSCKASGYTFTDYYMKWVKQSHGKSLEWIGDLNPNNGGTLYNQKFKGQATLTVDKSSSTAYMQFNSLTSEDSAVYYCARSAGYGDSFAYWGQGTLVTVSA
VL: DVLMTQTPLSLPVSLGDQASISCRSSQNIVHSNGNTYLEWYLQKPGQSPKLLIYKVSNRFSGVPDRFSGSGSGTDFTLKISRVEAEDLGIYFCFQGSHVPPTFGGGTKLEIK
notes: hybridoma supernatant
Molecule B2 displayed a Kd in test [1] of 2.9 nM.

B3: hu125B11 HC4 + 125B11 LC3 (antibody, V domains shown)
VH: EVQLVESGGGLVQPGGSLRLSCAASRFIFSNYWMNWVRQAPGKGLEWVAQIRLKSDNYATHYAESVKGRFTISRDNSKNTLYLQMNSLRAEDTAVYYCTGGTTYWGQGTLVTVSS
VL: DIQMTQSPSSLSASVGDRVTITCKASQNVGTAVAWYQQKPGKSPKLLIYSASIRYTGVPSRFSGSGSGTDFTLTISSLQPEDFATYYCQQFRTYPYTFGQGTKVEIK
With B3, the Kd in test [2] came out at 15 nM.

B4: hu125B11 HC4 + hu113F5-F7 LC1 (antibody, V domains shown)
VH: EVQLVESGGGLVQPGGSLRLSCAASRFIFSNYWMNWVRQAPGKGLEWVAQIRLKSDNYATHYAESVKGRFTISRDNSKNTLYLQMNSLRAEDTAVYYCTGGTTYWGQGTLVTVSS
VL: DIQMTQSPSSLSASVGDRVTITCKASQNVGTAVAWYQQKPGKSPKLLIYSASRRFSGVPSRFSGSGSGTDFTLTISSLQPEDFATYFCQQFSTYPYTFGQGTKVEIK
As for B4, in test [2], the Kd was 44 nM.

B5: hu125B11 HC4 + hu113F5-F7 LC3 (antibody, V domains shown)
VH: EVQLVESGGGLVQPGGSLRLSCAASRFIFSNYWMNWVRQAPGKGLEWVAQIRLKSDNYATHYAESVKGRFTISRDNSKNTLYLQMNSLRAEDTAVYYCTGGTTYWGQGTLVTVSS
VL: DIQMTQSPSSLSASVGDRVTITCKASQNVGTAVAWYQQKPGKSPKLLIYSASRRFSGVPSRFSGSGSGTDFTLTISSLQPEDFATYYCQQFSTYPYTFGQGTKVEIK
Turning to B5, the Kd in test [2] stood at 47 nM.

B6: hu125B11 HC4 + hu113F5-F7 LC4 (antibody, V domains shown)
VH: EVQLVESGGGLVQPGGSLRLSCAASRFIFSNYWMNWVRQAPGKGLEWVAQIRLKSDNYATHYAESVKGRFTISRDNSKNTLYLQMNSLRAEDTAVYYCTGGTTYWGQGTLVTVSS
VL: DIQMTQSPSSLSASVGDRVTITCKASQNVGTAVAWYQQKPGKAPKLLIYSASRRFSGVPSRFSGSGSGTDFTLTISSLQPEDFATYYCQQFSTYPYTFGQGTKVEIK
On to B6, for which the Kd in test [2] was 51 nM.

B7: hu125B11 HC4 + hu113F5-F7 LC2 (antibody, V domains shown)
VH: EVQLVESGGGLVQPGGSLRLSCAASRFIFSNYWMNWVRQAPGKGLEWVAQIRLKSDNYATHYAESVKGRFTISRDNSKNTLYLQMNSLRAEDTAVYYCTGGTTYWGQGTLVTVSS
VL: DIQMTQSPSSLSASVGDRVTITCKASQNVGTAVAWYQQKPGKAPKLLIYSASRRFSGVPSRFSGSGSGTDFTLTISSLQPEDFATYFCQQFSTYPYTFGQGTKVEIK
For B7, the Kd in test [2] was 47 nM.

B8: hu125B11 HC5 + 125B11 LC1 (antibody, V domains shown)
VH: EVQLVESGGGLVQPGGSLRLSCAASRFIFSNYYMNWVRQAPGKGLEWVAQIRLKSDNYATHYAESVKGRFTISRDDSKNTVYLQMNSLRAEDTAVYYCTGGTTYWGQGTLVTVSS
VL: DIQMTQSPSSLSASVGDRVTITCKASQNVGTAVAWYQQKPGKSPKLLIYSASIRYTGVPSRFSGSGSGTDFTLTISSLQPEDFATYFCQQFRTYPYTFGQGTKVEIK
Turning to B8, in test [2], the Kd was determined as 85 nM.

The record behind these values is patent publication US20190367592A1 (AC IMMUNE, published 2019).
